{"source": "paper PMC9684555", "about": "“Structure- and computational-aided engineering of an oxidase to produce isoeugenol from a lignin-derived compound” (Nature Communications, 2022)", "proteins": {"B1": {"name": "EUGO (eugenol oxidase) (Rhodococcus jostii RHA1) (protein)", "chain": "MTRTLPPGVSDERFDAALQRFRDVVGDKWVLSTADELEAFRDPYPVGAAEANLPSAVVSPESTEQVQDIVRIANEYGIPLSPVSTGKNNGYGGAAPRLSGSVIVKTGERMNRILEVNEKYGYALLEPGVTYFDLYEYLQSHDSGLMLDCPDLGWGSVVGNTLDRGVGYTPYGDHFMWQTGLEVVLPQGEVMRTGMGALPGSDAWQLFPYGFGPFPDGMFTQSNLGIVTKMGIALMQRPPASQSFLITFDKEEDLEQIVDIMLPLRINMAPLQNVPVLRNIFMDAAAVSKRTEWFDGDGPMPAEAIERMKKDLDLGFWNFYGTLYGPPPLIEMYYGMIKEAFGKIPGARFFTHEERDDRGGHVLQDRHKINNGIPSLDELQLLDWVPNGGHIGFSPVSAPDGREAMKQFEMVRNRANEYNKDYAAQFIIGLREMHHVCLFIYDTAIPEAREEILQMTKVLVREAAEAGYGEYRTHNALMDDVMATFNWGDGALLKFHEKIKDALDPNGIIAPGKSGIWSQRFRGQNL", "notes": "full length, 526 residues, C-terminal His6 tag (pBAD-EUGO-His6x), E. coli NEB10beta; covalent FAD; homodimer; mutants for crystals from His-SUMO fusion, tag cleaved"}}, "key": {"purified protein [1]": {"substrate": "CCCc1ccc(O)c(OC)c1", "assay": "purified protein", "type": "biochemical, Rhodococcus jostii", "conditions": "50 mM KPi pH 7.5, 10% v/v DMSO, 10 µM to 1 mM substrate, O2 co-substrate, 1.0 µM enzyme"}, "purified protein [2]": {"substrate": "COc1cc(CO)ccc1O", "assay": "purified protein", "type": "biochemical, Rhodococcus jostii", "conditions": "50 mM KPi pH 7.5, O2 co-substrate, 0.05 µM enzyme"}}, "data": [{"protein": "B1", "values": [{"measurement": "Km", "setting": "purified protein [1]", "value": "3.3 ± 0.9", "unit": "µM"}, {"measurement": "kcat", "setting": "purified protein [1]", "value": "0.008 ± 0.0003", "unit": "s⁻¹"}, {"measurement": "Km", "setting": "purified protein [2]", "value": "43.0 ± 2.2", "unit": "µM"}, {"measurement": "kcat", "setting": "purified protein [2]", "value": "6.8 ± 0.2", "unit": "s⁻¹"}]}]}
